Test results: patent publication US20230203159A1

Tests used:
[1] = molecular target: human CD3 receptor on T cell surface (Jurkat cells, human CD4 T cells) (human) (UniProt P07766); test: flow cytometry on Jurkat cells, one site saturation fit
[2] = molecular target: Cynomolgus Monkey CD3epsilon protein (Cynomolgus monkey) (UniProt Q95LI5); test: ELISA, protein coated on plate
[3] = molecular target: Human CD3 epsilon (CD3epsilon) protein (His Tag) (human) (UniProt P07766); test: ELISA, protein coated on plate
Chain of Human CD3 epsilon (CD3epsilon) protein (His Tag) (human) (P07766 23-126): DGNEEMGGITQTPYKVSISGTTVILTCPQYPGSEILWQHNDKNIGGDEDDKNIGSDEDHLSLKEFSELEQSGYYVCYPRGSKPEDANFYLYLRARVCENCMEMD

[4] = molecular target: mouse CD3epsilon protein (mouse) (UniProt P22646); test: ELISA, protein coated on plate
Chain of mouse CD3epsilon protein (mouse) (P22646 22-108 limits assumed): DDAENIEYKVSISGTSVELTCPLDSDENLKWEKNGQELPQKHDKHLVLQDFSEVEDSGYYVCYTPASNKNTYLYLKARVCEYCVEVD

Chain of human CD3 receptor on T cell surface (Jurkat cells, human CD4 T cells) (human) (P07766 23-207): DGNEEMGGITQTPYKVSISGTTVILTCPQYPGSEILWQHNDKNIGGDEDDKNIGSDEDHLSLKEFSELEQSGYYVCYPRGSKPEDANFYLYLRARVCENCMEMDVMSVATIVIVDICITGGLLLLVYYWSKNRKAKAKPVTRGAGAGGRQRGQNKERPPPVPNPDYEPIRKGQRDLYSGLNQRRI
Chain of Cynomolgus Monkey CD3epsilon protein (Cynomolgus monkey) (Q95LI5 22-117 limits assumed): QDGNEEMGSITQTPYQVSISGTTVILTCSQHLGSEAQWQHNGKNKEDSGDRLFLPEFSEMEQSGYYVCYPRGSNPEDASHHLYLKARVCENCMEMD

## Benchmark antibody OKT3
[1]
  Best fit- Bmax: 9.41e-11

## Negative Control
[2]
  ELISA A450: 0.046 A450
[3]
  ELISA A450: 0.046 A450
[4]
  ELISA A450: 0.179 A450
